Experimental findings from article PMC10484726, “Archaeal Hel308 suppresses recombination through a catalytic switch that controls DNA annealing” are described below.

Positions count from the first letter of the chain named.

One may read the Kd as the equilibrium constant for the complex coming apart.

Details in all cases: protein: recombinant; tags: N-terminal His6; label: Cy5 (end label); fork
Data set [1] concerns the target T1, Mth-Hel308 F295A (Methanothermobacter thermautotrophicus, UniProt O26901 1-690, F295A).
T1 sequence: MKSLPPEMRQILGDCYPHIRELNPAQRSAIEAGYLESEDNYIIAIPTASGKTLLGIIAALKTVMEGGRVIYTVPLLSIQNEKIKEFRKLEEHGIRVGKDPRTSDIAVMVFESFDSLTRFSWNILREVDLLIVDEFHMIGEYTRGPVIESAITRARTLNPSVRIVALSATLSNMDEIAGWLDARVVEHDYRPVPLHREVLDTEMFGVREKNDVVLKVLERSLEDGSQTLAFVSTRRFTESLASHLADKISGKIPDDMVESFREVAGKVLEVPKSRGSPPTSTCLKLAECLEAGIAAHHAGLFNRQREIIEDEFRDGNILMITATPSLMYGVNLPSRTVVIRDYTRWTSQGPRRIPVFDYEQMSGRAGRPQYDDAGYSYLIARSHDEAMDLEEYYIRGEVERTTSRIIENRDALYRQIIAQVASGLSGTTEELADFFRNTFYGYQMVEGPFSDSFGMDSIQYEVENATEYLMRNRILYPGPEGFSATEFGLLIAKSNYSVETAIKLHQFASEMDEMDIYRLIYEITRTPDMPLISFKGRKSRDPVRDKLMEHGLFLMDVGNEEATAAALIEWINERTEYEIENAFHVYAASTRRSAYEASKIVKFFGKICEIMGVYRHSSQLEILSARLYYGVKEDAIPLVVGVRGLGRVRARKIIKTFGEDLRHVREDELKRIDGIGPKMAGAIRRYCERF
Kind of data set: EMSA; 5 mM EDTA; 25 nM DNA; EMSA: 20 mM Tris-HCl pH 7.5, 100 ug/ml BSA, 7% glycerol, 25 mM DTT, 5 mM EDTA, 25 nM Cy5-DNA; 5% TBE gel; no added salt stated; 37 C 10 min stated for duplex DNA reactions. A general note: In EMSA bound probe runs differently from free probe, usually more slowly.

In data set [2] the target is T2, Mth-Hel308 R591A (Methanothermobacter thermautotrophicus, UniProt O26901 1-690, R591A).
T2 sequence: T1 sequence with A295F, R591A
The description is as above.

Data set [3] concerns the target T3, Mth-Hel308 Y586A (Methanothermobacter thermautotrophicus, UniProt O26901 1-690, Y586A).
T3 sequence: T1 sequence with A295F, Y586A
Kind of data set: EMSA; 5 mM EDTA; 25 nM DNA; similar to wild type; EMSA: 20 mM Tris-HCl pH 7.5, 100 ug/ml BSA, 7% glycerol, 25 mM DTT, 5 mM EDTA, 25 nM Cy5-DNA; 5% TBE gel; no added salt stated; 37 C 10 min stated for duplex DNA reactions.

B1: forked DNA substrate (dsDNA)
DNA 1: GTCGGATCCTCTAGACAGCTCCATGATCACTGGCACTGGTAGAATTCGGC
DNA 2: CAACGTCATAGACGATTACATTGCTACATGGAGCTGTCTAGAGGATCCGA
For the molecule B1, in data set [1], the Kd was 19.3 nM. Further, the binding result in data set [2] and in data set [3] was “binds” each time.
